# Data from US20040082509.
# B1: MKK7 kinase (protein)
# chain: MAASSLEQKLSRLEAKLKQENREARRRIDLNLDISPQRPRPTLQLPLANDGGSRSPSSESSPQHPTPPARPRHMLGLPSTLFTPRSMESIEIDQKLQEIMKQTGYLTIGGQRYQAEINDLENLGEMGSGTCGQVWKMRFRKTGHVIAVKQMRRSGNKEENKRILMDLDVVLKSHDCPYIVQCFGTFITNTDVFIAMELMGTCAEKLKKRMQGPIPERILGKMTVAIVKALYYLKEKHGVIHRDVKPSNILLDERGQIKLCDFGISGRLVDSKAKTRSAGCAAYMAPERIDPPDPTKPDYDIRADVWSLGISLVELATGQFPYKNCKTDFEVLTKVLQEEPPLLPGHMGFSGDFQSFVKDCLTKDHRKRPKYNKLLEHSFIKRYETLEVDVASWFKDVMAKTESPRTSGVLSQPHLPFFR
# B2: recombinant nonactivated JNK1 (protein)
# chain: MSRSKRDNNFYSVEIGDSTFTVLKRYQNLKPIGSGAQGIVCAAYDAILERNVAIKKLSRPFQNQTHAKRAYRELVLMKCVNHKNIIGLLNVFTPQKSLEEFQDVYIVMELMDANLCQVIQMELDHERMSYLLYQMLCGIKHLHSAGIIHRDLKPSNIVVKSDCTLKILDFGLARTAGTSFMMTPYVVTRYYRAPEVILGMGYKENVDLWSVGCIMGEMVCHKILFPGRDYIDQWNKVIEQLGTPCPEFMKKLQPTVRTYVENRPKYAGYSFEKLFPDVLFPADSEHNKLKASQARDLLSKMLVIDASKRISVDEALQHPYINVWYDPSEAEAPPPKIPDKQLDEREHTIEEWKELIYKEVMDLEERTKNGVIRGQPSPLGAAVINGSQHPSSSSSVNDVSSMSTDPTLASDTDSSLEAAAGPLGCCR
# B3: MKK4 kinase (protein)
# chain: MAAPSPSGGGGSGGGSGSGTPGPVGSPAPGHPAVSSMQGKRKALKLNFANPPFKSTARFTLNPNPTGVQNPHIERLRTHSIESSGKLKISPEQHWDFTAEDLKDLGEIGRGAYGSVNKMVHKPSGQIMAVKRIRSTVDEKEQKQLLMDLDVVMRSSDCPYIVQFYGALFREGDCWICMELMSTSFDKFYKYVYSVLDDVIPEEILGKITLATVKALNHLKENLKIIHRDIKPSNILLDRSGNIKLCDFGISGQLVDSIAKTRDAGCRPYMAPERIDPSASRQGYDVRSDVWSLGITLYELATGRFPYPKWNSVFDQLTQVVKGDPPQLSNSEEREFSPSFINFVNLCLTKDESKRPKYKELLKHPFILMYEERAVEVACYVCKILDQMPATPSSPMYVD
# B4: recombinant nonactivated JNK3 (protein)
# chain: MSLHFLYYCSEPTLDVKIAFCQGFDKQVDVSYIAKHYNMSKSKVDNQFYSVEVGDSTFTVLKRYQNLKPIGSGAQGIVCAAYDAVLDRNVAIKKLSRPFQNQTHAKRAYRELVLMKCVNHKNIISLLNVFTPQKTLEEFQDVYLVMELMDANLCQVIQMELDHERMSYLLYQMLCGIKHLHSAGIIHRDLKPSNIVVKSDCTLKILDFGLARTAGTSFMMTPYVVTRYYRAPEVILGMGYKENVDIWSVGCIMGEMVRHKILFPGRDYIDQWNKVIEQLGTPCPEFMKKLQPTVRNYVENRPKYAGLTFPKLFPDSLFPADSEHNKLKASQARDLLSKMLVIDPAKRISVDDALQHPYINVWYDPAEVEAPPPQIYDKQLDEREHTIEEWKELIYKEVMNSEEKTKNGVVKGQPSPSGAAVNSSESLPPSSSVNDISSMSTDQTLASDTDSSLEASAGPLGCCR
# B5: recombinant nonactivated JNK2 (protein)
# chain: MSDSKCDSQFYSVQVADSTFTVLKRYQQLKPIGSGAQGIVCAAFDTVLGINVAVKKLSRPFQNQTHAKRAYRELVLLKCVNHKNIISLLNVFTPQKTLEEFQDVYLVMELMDANLCQVIHMELDHERMSYLLYQMLCGIKHLHSAGIIHRDLKPSNIVVKSDCTLKILDFGLARTACTNFMMTPYVVTRYYRAPEVILGMGYKENVDIWSVGCIMGELVKGCVIFQGTDHIDQWNKVIEQLGTPSAEFMKKLQPTVRNYVENRPKYPGIKFEELFPDWIFPSESERDKIKTSQARDLLSKMLVIDPDKRISVDEALRHPYITVWYDPAEAEAPPPQIYDAQLEEREHAIEEWKELIYKEVMDWEERSKNGVVKDQPSDAAVSSNATPSQSSSINDISSMSTEQTLASDTDSSLDASTGPLEGCR
# B6: recombinant JNK1α1 (protein)
# chain: MSRSKRDNNFYSVEIGDSTFTVLKRYQNLKPIGSGAQGIVCAAYDAILERNVAIKKLSRPFQNQTHAKRAYRELVLMKCVNHKNIIGLLNVFTPQKSLEEFQDVYIVMELMDANLCQVIQMELDHERMSYLLYQMLCGIKHLHSAGIIHRDLKPSNIVVKSDCTLKILDFGLARTAGTSFMMTPYVVTRYYRAPEVILGMGYKENVDLWSVGCIMGEMVCHKILFPGRDYIDQWNKVIEQLGTPCPEFMKKLQPTVRTYVENRPKYAGYSFEKLFPDVLFPADSEHNKLKASQARDLLSKMLVIDASKRISVDEALQHPYINVWYDPSEAEAPPPKIPDKQLDEREHTIEEWKELIYKEVMDLEERTKNGVIRGQPSPLAQVQQ
# What was measured:
# [1] = biological target: T1, D-TAT-JNKI1 (i.e., D-TAT-JBD20)
# T1 chain: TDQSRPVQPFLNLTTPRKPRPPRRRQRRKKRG
# [2] = biological target: T2, L-TAT-JNKI1 (i.e., L-TAT-JBD20)
# T2 chain: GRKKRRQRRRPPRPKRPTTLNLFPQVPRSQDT
# [3] = biological target: T3, L-TAT-IB1 peptide
# T3 chain: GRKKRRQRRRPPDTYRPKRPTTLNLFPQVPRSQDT
# [4] = biological target: T4, L-TAT-IB2 peptide
# T4 chain: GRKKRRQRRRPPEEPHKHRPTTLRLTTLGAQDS
# [5] = biological target: T5, D-TAT-IB1 peptide
# T5 chain: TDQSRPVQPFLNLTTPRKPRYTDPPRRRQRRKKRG
protein,measurement,setting,value
B1,"kinase activity towards its substrate, panel of 40 kinases (10 µM peptides, 10 µM ATP)",[1],the JNKI peptides had an affect on the JNKs and MKK4 and MKK7 kinases
same,"kinase activity towards its substrate, panel of 40 kinases (10 µM peptides, 10 µM ATP)",[2],the JNKI peptides had an affect on the JNKs and MKK4 and MKK7 kinases
B2,"phosphorylation of c-Jun, ATF2 and Elk1 by recombinant JNK1, solid phase kinase assay (peptide 0-25 µM)",[3],"Nearly complete inhibition of c-Jun, ATF2 and Elk1 phosphorylation by JNKs was observed at TAT-IB peptide doses as low as 2.5 µM"
same,"phosphorylation of c-Jun, ATF2 and Elk1 by recombinant JNK1, solid phase kinase assay (peptide 0-25 µM)",[4],"Nearly complete inhibition of c-Jun, ATF2 and Elk1 phosphorylation by JNKs was observed at TAT-IB peptide doses as low as 2.5 µM"
same,"GST-Jun (a.a. 1-73) phosphorylation by recombinant JNK1, fold less efficient than L-TAT-IB1 (0-250 µM dosage study)",[5],approximately 10-20 fold less efficiently than L-TAT-IB1
B3,"kinase activity towards its substrate, panel of 40 kinases (10 µM peptides, 10 µM ATP)",[1],the JNKI peptides had an affect on the JNKs and MKK4 and MKK7 kinases
same,"kinase activity towards its substrate, panel of 40 kinases (10 µM peptides, 10 µM ATP)",[2],the JNKI peptides had an affect on the JNKs and MKK4 and MKK7 kinases
B4,"phosphorylation of Elk1 by recombinant JNK3, solid phase kinase assay",[3],a marked exception was the absence of TAT-IB inhibition of JNK3 phosphorylation of Elk1
same,"phosphorylation of c-Jun and ATF2 by recombinant JNK3, solid phase kinase assay (peptide 0-25 µM)",[3],"Nearly complete inhibition of c-Jun, ATF2 and Elk1 phosphorylation by JNKs was observed at TAT-IB peptide doses as low as 2.5 µM"
same,"phosphorylation of Elk1 by recombinant JNK3, solid phase kinase assay",[4],a marked exception was the absence of TAT-IB inhibition of JNK3 phosphorylation of Elk1
same,"phosphorylation of c-Jun and ATF2 by recombinant JNK3, solid phase kinase assay (peptide 0-25 µM)",[4],"Nearly complete inhibition of c-Jun, ATF2 and Elk1 phosphorylation by JNKs was observed at TAT-IB peptide doses as low as 2.5 µM"
same,"GST-Jun (a.a. 1-73) phosphorylation by recombinant JNK3, fold less efficient than L-TAT-IB1 (0-250 µM dosage study)",[5],approximately 10-20 fold less efficiently than L-TAT-IB1
B5,"phosphorylation of c-Jun, ATF2 and Elk1 by recombinant JNK2, solid phase kinase assay (peptide 0-25 µM)",[3],"Nearly complete inhibition of c-Jun, ATF2 and Elk1 phosphorylation by JNKs was observed at TAT-IB peptide doses as low as 2.5 µM"
same,"phosphorylation of c-Jun, ATF2 and Elk1 by recombinant JNK2, solid phase kinase assay (peptide 0-25 µM)",[4],"Nearly complete inhibition of c-Jun, ATF2 and Elk1 phosphorylation by JNKs was observed at TAT-IB peptide doses as low as 2.5 µM"
same,"GST-Jun (a.a. 1-73) phosphorylation by recombinant JNK2, fold less efficient than L-TAT-IB1 (0-250 µM dosage study)",[5],approximately 10-20 fold less efficiently than L-TAT-IB1
B6,"in vitro phosphorylation of GST-Jun and GST-Elk1 by JNK1α1, kinase assay",[1],their ability to prevent the phosphorylation in vitro of known JNK targets c-Jun and Elk1 using JNK1α1
same,"in vitro phosphorylation of GST-Jun and GST-Elk1 by JNK1α1, kinase assay",[2],their ability to prevent the phosphorylation in vitro of known JNK targets c-Jun and Elk1 using JNK1α1
